Data reported in US20250188133A1, “CHIMERIC BACTERIOCINS AND METHOD FOR THE CONTROL OF PSEUDOMONAS” (priority 2022, published 2025).

What was measured:
Type in all cases: cell-based
P. aeruginosa 13-18499 = experiment: agar disc-diffusion assay; settings: strain 13-18499; 0.3, 3 and 30 μg of protein spotted on discs on CAA agar lawn, overnight
Protocol: (§1) Overnight P. aeruginosa cultures grown in CAA medium were equalized till OD595=1.0 in CAA and diluted 100×. Sterile cotton swab was briefly submerged in diluted microbial suspension, removing the excess of liquid by pressing it against the container wall. The swab was used for evenly streaking bacteria on plates containing growth medium with CAA solid agar (1.5%). 6 mm diameter sterile Whatman discs were placed on soft-agar and 0.3-30 μg of chimeric pyocins were spotted to paper disks. The plates were incubated overnight at 37° C. and bacteriocin inhibition zones were observed.
(§2) Next, all 25 P. aeruginosa strains were subjected to agar disc-diffusion assay by spotting different amounts of purified pyocin S5 (0.3 μg, 3 μg and 30 μg) on bacteria lawns. Six P. aeruginosa strains were resistant to pyocin S5. Four of these six strains were pyocin S5 and immunity protein-encoding strains—PA14, PAO1, […] and NCTC 13921. Two cystic fibrosis isolates, 12-35708 and 12-29165 were also completely resistant to pyocin S5, despite the absence of S5, or S5 immunity protein coding genes. […] Turbid inhibition zones were detected when 3 μg and 30 μg of S5 were spotted on the lawn of these strains (Table 1, FIG. 3).

P. aeruginosa A19 = experiment: agar disc-diffusion assay; settings: strain A19; 0.3, 3 and 30 μg of protein spotted on discs on CAA agar lawn, overnight
Protocol: as §1, §2

P. aeruginosa ATCC 19660 = experiment: agar disc-diffusion assay; settings: strain ATCC 19660; 0.3, 3 and 30 μg of protein spotted on discs on CAA agar lawn, overnight
Protocol: as §1, §2

P. aeruginosa ATCC 29260 = experiment: agar disc-diffusion assay; settings: strain ATCC 29260; 0.3, 3 and 30 μg of protein spotted on discs on CAA agar lawn, overnight
Protocol: as §1, §2

P. aeruginosa BI80 = experiment: agar disc-diffusion assay; settings: strain BI80; 0.3, 3 and 30 μg of protein spotted on discs on CAA agar lawn, overnight
Protocol: as §1, §2

P. aeruginosa BL77 = experiment: agar disc-diffusion assay; settings: strain BL77; 0.3, 3 and 30 μg of protein spotted on discs on CAA agar lawn, overnight
Protocol: as §1, §2

P. aeruginosa BR79 = experiment: agar disc-diffusion assay; settings: strain BR79; 0.3, 3 and 30 μg of protein spotted on discs on CAA agar lawn, overnight
Protocol: as §1, §2

[1] = test system: P. aeruginosa Boston 41501 (ATCC 27853); experiment: agar disc-diffusion assay; settings: strain Boston; 0.3, 3 and 30 μg of protein spotted on discs on CAA agar lawn, overnight
Protocol: as §1, §2

P. aeruginosa Bu002 = experiment: agar disc-diffusion assay; settings: strain Bu002; 0.3, 3 and 30 μg of protein spotted on discs on CAA agar lawn, overnight
Protocol: as §1, §2

P. aeruginosa EY76 = experiment: agar disc-diffusion assay; settings: strain EY76; 0.3, 3 and 30 μg of protein spotted on discs on CAA agar lawn, overnight
Protocol: as §1, §2

P. aeruginosa HP1 = experiment: agar disc-diffusion assay; settings: strain HP1; 0.3, 3 and 30 μg of protein spotted on discs on CAA agar lawn, overnight
Protocol: as §1, §2

P. aeruginosa HP40 = experiment: agar disc-diffusion assay; settings: strain HP40; 0.3, 3 and 30 μg of protein spotted on discs on CAA agar lawn, overnight
Protocol: as §1, §2

P. aeruginosa HP41 = experiment: agar disc-diffusion assay; settings: strain HP41; 0.3, 3 and 30 μg of protein spotted on discs on CAA agar lawn, overnight
Protocol: as §1, §2

P. aeruginosa HP52 = experiment: agar disc-diffusion assay; settings: strain HP52; 0.3, 3 and 30 μg of protein spotted on discs on CAA agar lawn, overnight
Protocol: as §1, §2

P. aeruginosa HP6 = experiment: agar disc-diffusion assay; settings: strain HP6; 0.3, 3 and 30 μg of protein spotted on discs on CAA agar lawn, overnight
Protocol: as §1, §2

P. aeruginosa HP75 = experiment: agar disc-diffusion assay; settings: strain HP75; 0.3, 3 and 30 μg of protein spotted on discs on CAA agar lawn, overnight
Protocol: as §1, §2

P. aeruginosa HP7 = experiment: agar disc-diffusion assay; settings: strain HP7; 0.3, 3 and 30 μg of protein spotted on discs on CAA agar lawn, overnight
Protocol: as §1, §2

P. aeruginosa NCTC 13437 = experiment: agar disc-diffusion assay; settings: strain NCTC 13437; 0.3, 3 and 30 μg of protein spotted on discs on CAA agar lawn, overnight
Protocol: as §1, §2

P. aeruginosa NCTC 13921 = experiment: agar disc-diffusion assay; settings: strain NCTC 13921; 0.3, 3 and 30 μg of protein spotted on discs on CAA agar lawn, overnight
Protocol: as §1, §2

P. aeruginosa PA14 = experiment: agar disc-diffusion assay; settings: strain PA14; 0.3, 3 and 30 μg of protein spotted on discs on CAA agar lawn, overnight
Protocol: as §1, §2

P. aeruginosa PAO1 = experiment: agar disc-diffusion assay; settings: strain PAO1; 0.3, 3 and 30 μg of protein spotted on discs on CAA agar lawn, overnight
Protocol: as §1, §2

P. aeruginosa Pr335 = experiment: agar disc-diffusion assay; settings: strain Pr335; 0.3, 3 and 30 μg of protein spotted on discs on CAA agar lawn, overnight
Protocol: as §1, §2

P. aeruginosa UR78 = experiment: agar disc-diffusion assay; settings: strain UR78; 0.3, 3 and 30 μg of protein spotted on discs on CAA agar lawn, overnight
Protocol: as §1, §2

P. aeruginosa strains = experiment: agar disc-diffusion assay, panel of 25 strains
Protocol: as §1, §2

B1: S5-Pflu095: chimeric bacteriocin SEQ ID NO: 9: pyocin S5 first segment fused to P. fluorescens Pflu095 killing domain (protein)
chain: MSNDNEVPGSMVIVAQGPDDQYAYEVPPIDSAAVAGNMFGDLIQREIYLQKNIYYPVRSIFEQGTKEKKEINKKVSDQVDGLLKQITQGKREATRQERVDVMSAVLHKMESDLEGYKKTFTKGPFIDYEKQSSLSIYEAWVKIWEKNSWEERKKYPFQQLVRDELERAVAYYKQDSLSEAVKVLRQELNKQKALKEKEDLSQLERDYRTRKANLEMKVQSELDQAGSALPPLVSPTPEQWLERATRLVTQAIADKKQLQTTNNTLIKNSPTPLEKQKAIYNGELLVDEIASLQARLVKLNAETTRRRTEKDKVRTEVVDIEAAIKFTSDFYAEAGVRFGDSASKLASDLADSAQGKKIRSADEAFKAFDKYKNELDKKFSVKDRAAAAKYIDSIDYEAIGKAATKFSKGLGYVGPVIDAKDSIIEFINSMESGDWKPFFLKLESIALGLAATAFVGIAFGFIATTPMGILAFAFIVAATGAAIDDNFAEKLNKFVSSL
modifications: S5-Pflu095
- Activity in agar disc-diffusion assay (P. aeruginosa 13-18499): ** (activity detected with 3 μg of protein)
- Activity in agar disc-diffusion assay (P. aeruginosa A19): *** (activity detected with 0.3 μg of protein)
- Activity in agar disc-diffusion assay (P. aeruginosa ATCC 19660): * (activity detected only with 30 μg of protein)
- Activity in agar disc-diffusion assay (P. aeruginosa ATCC 29260): *** (activity detected with 0.3 μg of protein)
- Activity in agar disc-diffusion assay (P. aeruginosa BI80): *** (activity detected with 0.3 μg of protein)
- Activity in agar disc-diffusion assay (P. aeruginosa BL77): ** (activity detected with 3 μg of protein)
- Activity in agar disc-diffusion assay (P. aeruginosa BR79): ** (activity detected with 3 μg of protein)
- Activity in agar disc-diffusion assay [1]: *** (activity detected with 0.3 μg of protein)
- Activity in agar disc-diffusion assay (P. aeruginosa Bu002): *** (activity detected with 0.3 μg of protein)
- Activity in agar disc-diffusion assay (P. aeruginosa EY76): *** (activity detected with 0.3 μg of protein)
- Activity in agar disc-diffusion assay (P. aeruginosa HP1): *** (activity detected with 0.3 μg of protein)
- Activity in agar disc-diffusion assay (P. aeruginosa HP40): *** (activity detected with 0.3 μg of protein)
- Activity in agar disc-diffusion assay (P. aeruginosa HP41): *** (activity detected with 0.3 μg of protein)
- Activity in agar disc-diffusion assay (P. aeruginosa HP52): ** (activity detected with 3 μg of protein)
- Activity in agar disc-diffusion assay (P. aeruginosa HP6): *** (activity detected with 0.3 μg of protein)
- Activity in agar disc-diffusion assay (P. aeruginosa HP75): * (activity detected only with 30 μg of protein)
- Activity in agar disc-diffusion assay (P. aeruginosa HP7): *** (activity detected with 0.3 μg of protein)
- Activity in agar disc-diffusion assay (P. aeruginosa NCTC 13437): * (activity detected only with 30 μg of protein)
- Activity in agar disc-diffusion assay (P. aeruginosa NCTC 13921): *** (activity detected with 0.3 μg of protein)
- Activity in agar disc-diffusion assay (P. aeruginosa PA14): ** (activity detected with 3 μg of protein)
- Activity in agar disc-diffusion assay (P. aeruginosa PAO1): *** (activity detected with 0.3 μg of protein)
- Activity in agar disc-diffusion assay (P. aeruginosa Pr335): *** (activity detected with 0.3 μg of protein)
- Activity in agar disc-diffusion assay (P. aeruginosa UR78): *** (activity detected with 0.3 μg of protein)
- inhibition on lawns of S5 producer strains HP6 and HP7 (P. aeruginosa strains; clinical isolates HP6 and HP7, S5 gave turbid zones with 3 μg and 30 μg): significantly larger and clearer than those formed by S5
- activity spectrum / profile in agar disc diffusion assay (P. aeruginosa strains; panel of 25 P. aeruginosa strains, in words): broadened activity spectrum in comparison to pyocin S5
- inhibition zones on lawns of S5-producing strains (P. aeruginosa strains; six pyocin S5 and immunity gene-positive strains (PA14, PAO1, HP6, HP7, ATCC 19660, NCTC 13921)): formed inhibition zones on the lawns of all six S5-producing strains
